Measured values as given in publication PMC12229607.

Molecular target: human Fc gamma receptor FcγRIIIa, V158 allotype (human)
Assay: ELISA

Chain of human Fc gamma receptor FcγRIIIa, V158 allotype (human) (P08637 17-208): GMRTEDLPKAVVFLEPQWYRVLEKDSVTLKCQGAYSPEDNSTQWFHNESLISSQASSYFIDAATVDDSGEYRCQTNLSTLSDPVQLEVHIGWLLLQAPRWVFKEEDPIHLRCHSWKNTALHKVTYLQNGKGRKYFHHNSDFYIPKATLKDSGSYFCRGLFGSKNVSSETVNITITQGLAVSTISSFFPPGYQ

Row | EC50 [µM] | Substance
1 | 0.0285 | G2-hinge-Fc (E. coli-derived human IgG1 hinge-Fc bearing the G2 glycoform) (domain or fragment)
2 | 0.0054 | commercial trastuzumab (antibody)
